# Test results from PMC9537296, “A novel glucagon analog with an extended half-life, HM15136, normalizes glucose levels in rodent models of congenital hyperinsulinism” (Scientific Reports, 2022).
# Legend:
# FcRn = FcRn (UniProt P55899); assay: SPR; association with FcRn at pH 6.0, dissociation at pH 7.4
# [1] = target: human glucagon receptor (human) (UniProt P47871)
# FcγRIIIA = FcγRIIIA (UniProt P08637); assay: SPR; BIACORE T200, 25 °C; FcγRs immobilised by amine coupling on CM5 chips; test materials flowed over (HMC001 and I.V.-Globulin SN 31.25-500 nM, HM15136 30.38-486 nM); steady-state affinity fit
# FcγRIIIA, sequence (P08637 17-208): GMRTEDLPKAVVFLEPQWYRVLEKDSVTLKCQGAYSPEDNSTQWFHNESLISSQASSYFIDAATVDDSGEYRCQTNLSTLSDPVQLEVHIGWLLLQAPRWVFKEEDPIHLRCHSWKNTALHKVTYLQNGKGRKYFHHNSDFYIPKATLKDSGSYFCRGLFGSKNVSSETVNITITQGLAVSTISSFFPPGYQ
# FcγRIIA = FcγRIIA (UniProt P12318); assay: as above
# FcγRIIA, sequence (P12318 34-217): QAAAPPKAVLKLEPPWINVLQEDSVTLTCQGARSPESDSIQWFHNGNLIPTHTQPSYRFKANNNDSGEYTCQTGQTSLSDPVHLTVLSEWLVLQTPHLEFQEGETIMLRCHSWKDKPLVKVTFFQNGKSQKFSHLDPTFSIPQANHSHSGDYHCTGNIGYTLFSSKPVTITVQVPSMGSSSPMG
# FcγRIA = FcγRIA (UniProt P12314); assay: as above
# FcγRIA, sequence (P12314 16-292): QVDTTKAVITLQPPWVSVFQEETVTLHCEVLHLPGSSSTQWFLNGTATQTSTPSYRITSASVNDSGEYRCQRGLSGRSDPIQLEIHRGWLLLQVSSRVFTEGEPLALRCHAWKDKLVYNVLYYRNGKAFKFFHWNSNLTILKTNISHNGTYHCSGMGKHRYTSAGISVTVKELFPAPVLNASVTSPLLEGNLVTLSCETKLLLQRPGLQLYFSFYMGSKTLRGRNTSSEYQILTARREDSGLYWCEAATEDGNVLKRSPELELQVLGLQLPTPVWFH
# FcγRIIIB = FcγRIIIB (UniProt O75015); assay: as above
# FcγRIIIB, sequence (O75015 17-200): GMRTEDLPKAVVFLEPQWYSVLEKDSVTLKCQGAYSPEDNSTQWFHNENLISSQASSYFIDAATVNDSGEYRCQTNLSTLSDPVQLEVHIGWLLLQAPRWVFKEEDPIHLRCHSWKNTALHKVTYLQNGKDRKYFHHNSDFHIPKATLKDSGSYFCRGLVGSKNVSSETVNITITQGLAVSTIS
Ka (FcRn),EC50 of intracellular cAMP generation in hGCGR/CHO cells (0.0015 to 1555.2 nM HM15136) [1],Kd (FcγRIIIA),Kd (FcγRIIA),Kd (FcγRIA),Kd (FcγRIIIB),Substance
420000,0.024 nM,–,–,–,–,HM15136
–,–,209 nM,184 nM,26.7 nM,1590 nM,IgG1 (=I.V.-Globulin SN) (antibody)
